Data as given in patent publication US20220380463A1 (Adimab, published 2022).
Substitutions are numbered along the chain they refer to.

B1: SAD10318_P01_H01 (ADI-48580) (antibody, V domains shown)
VH: QVQLVQSGAEVKKPGASVKVSCKASGFNIKDYYMHWVRQAPGQRLEWMGWIDLENANTIYDAKFQGRVTITRDTSASTAYMELSSLRSEDTAVYYCARDAHHRYFYDVWGQGTLVTVSS
VL: DIVMTQSPDSLAVSLGERATINCKSSQSLLNAHTGKNHLAWYQQKPGQPPKLLIYWASTRESGVPDRFSGSGSGTDFTLTISSLQAEDVAVYYCKQSYHHRTFGGGTKVEIK
notes: IgG; also called Ab226
B2: SAD10318_P03_H08 (ADI-48607) (antibody, V domains shown)
VH: B1 VH with H101Y, R103H
VL: B1 VL with H33R, K36H, K95H, Y98H, H99S, H100R
notes: IgG; also called Ab202
B3: SAD10318_P02_G04 (ADI-48593) (antibody, V domains shown)
VH: B1 VH with H101Y, H102G, R103H, F105H
VL: B1 VL with N31H, H33R, H38Y
notes: IgG; also called Ab158
B4: SAD10318_P04_A12 (ADI-48618) (antibody, V domains shown)
VH: B1 VH with H101Y, Y104H
VL: B1 VL with N31H, A32P, H33R, H38Y
notes: IgG; also called Ab224
B5: SAD10318_P04_D10 (ADI-48613) (antibody, V domains shown)
VH: B1 VH with H101Y, H102G, R103H, F105H
VL: B1 VL with N31H, H33R, H99S, H100R
notes: IgG; also called Ab211
B6: SAD10318_P02_H05 (ADI-48599) (antibody, V domains shown)
VH: B1 VH with H101Y, H102G, R103H, Y104H
VL: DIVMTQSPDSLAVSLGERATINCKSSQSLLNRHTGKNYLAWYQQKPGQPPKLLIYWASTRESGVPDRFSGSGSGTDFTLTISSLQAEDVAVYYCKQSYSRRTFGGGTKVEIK
notes: IgG; also called Ab185
B7: SAD10318_P03_E07 (ADI-48601) (antibody, V domains shown)
VH: B1 VH with A100H, H101Y
VL: B1 VL with H38Y, K95H, Y98H, H99S, H100R
notes: IgG; also called Ab191
B8: SAD10318_P04_C11 (ADI-48615) (antibody, V domains shown)
VH: B1 VH with A100H, H102G
VL: B1 VL with H33R, K36H, H99S, H100R
notes: IgG; also called Ab218
B9: SAD10318_P03_C09 (ADI-48609) (antibody, V domains shown)
VH: B1 VH with H101Y, V108H
VL: B1 VL
notes: IgG; also called Ab205
B10: SAD10318_P02_D05 (ADI-48598) (antibody, V domains shown)
VH: B1 VH with A100H, H101Y, H102G, R103H
VL: B1 VL with H33R
notes: IgG; also called Ab181
B11: SAD10318_P02_C04 (ADI-48592) (antibody, V domains shown)
VH: B1 VH with K13E
VL: B1 VL with K36H, H38Y, H99S, H100R
notes: IgG; also called Ab125
B12: SAD10318_P03_E08 (ADI-48605) (antibody, V domains shown)
VH: B1 VH with A100H, H101Y
VL: B1 VL with H100R, T102H
notes: IgG; also called Ab199
B13: SAD10318_P04_D11 (ADI-48616) (antibody, V domains shown)
VH: B1 VH with H101Y, H102G, R103H
VL: B1 VL with H33R, K36H, K95H, H99S
notes: IgG; also called Ab219
B14: SAD10318_P03_D08 (ADI-48604) (antibody, V domains shown)
VH: B1 VH with S75A, A100H, H101Y, V108H
VL: B1 VL with H99S, H100R
notes: IgG; also called Ab198
B15: SAD10318_P02_H04 (ADI-48594) (antibody, V domains shown)
VH: B1 VH with H101Y, V108H
VL: B1 VL with N31H, H33R, K36H, H38Y, H99S, H100R
notes: IgG; also called Ab169
B16: SAD10318_P02_G06 (ADI-48600) (antibody, V domains shown)
VH: B1 VH with R98H, H101Y, H102G, R103H
VL: B1 VL with N31H, A32T, H33R, H38Y, H99S, H100R
notes: IgG; also called Ab189
B17: SAD10318_P01_H03 (ADI-48591) (antibody, V domains shown)
VH: B1 VH with R98H, H101Y, H102G, R103H
VL: B1 VL with H33R, K36H, H38Y, S71R
notes: IgG; also called Ab102
B18: SAD10318_P04_B11 (ADI-48614) (antibody, V domains shown)
VH: B1 VH with A100H, H101Y
VL: B1 VL with H99S, H100R
notes: IgG; also called Ab217
B19: SAD10318_P03_F07 (ADI-48602) (antibody, V domains shown)
VH: B1 VH with H102G, F105H
VL: B1 VL with S10C, H33R, K36H, H38Y, Y98H, H99S
notes: IgG; also called Ab192
B20: SAD10318_P04_C10 (ADI-48612) (antibody, V domains shown)
VH: B1 VH with H101Y, H102G, F105H, Y106H
VL: B1 VL with H33R, K36H, K95H, H100R
notes: IgG; also called Ab210
B21: SAD10318_P03_A09 (ADI-48608) (antibody, V domains shown)
VH: B1 VH with A100H, H101Y, H102G, V108H
VL: B1 VL with H33R, K36H
notes: IgG; also called Ab203
B22: SAD10318_P02_B05 (ADI-48596) (antibody, V domains shown)
VH: B1 VH with H101Y, H102G, Y104H, V108H
VL: B1 VL with H38Y, H99S, H100R
notes: IgG; also called Ab179
B23: SAD10318_P02_A05 (ADI-48595) (antibody, V domains shown)
VH: B1 VH with A9T, H101Y, V108H
VL: B1 VL with A32S, H38Y, H99S, H100R
notes: IgG; also called Ab178
B24: SAD10318_P03_F08 (ADI-48606) (antibody, V domains shown)
VH: B1 VH with A100H, H101Y
VL: B1 VL with H99S, H100R, T102H
notes: IgG; also called Ab200
B25: SAD10318_P03_C08 (ADI-48603) (antibody, V domains shown)
VH: B1 VH with A100H, H101Y, H102G, R103H
VL: B1 VL with N31H, H33R, Y98H, H99S
notes: IgG; also called Ab197
B26: SAD10318_P03_D09 (ADI-48610) (antibody, V domains shown)
VH: B1 VH with Y33H
VL: B1 VL with Y98H, H99S
notes: IgG; also called Ab206
B27: SAD10318_P04_H11 (ADI-48617) (antibody, V domains shown)
VH: B1 VH with A100H, H101Y, H102G, V108H
VL: B1 VL with S7Y, K36H, H38Y, K95H, H99S
notes: IgG; also called Ab223
B28: SAD10319_P01_D01 (ADI-48622) (antibody, V domains shown)
VH: QVQLVQSGAEVKKPGASVKVSCKASGYTFKSYDMHWVRQAPGQRLEWMGWIDAGTGNTKYSQKFQGRVTITRDTSASTAYMELSSLRSEDTAVYYCARDAYGRYFYDVWGQGTLVTVSS
VL: B1 VL with H33R, H38Y, H99S, H100R
notes: IgG; also called Ab231

What was measured:
[1] = target: T1, human CD3 on CD3+ Jurkat cells (human, UniProt P07766 23-207); experiment: flow cytometry, 100 nM IgG on CD3+ Jurkat cells, pH 7.4
T1 construct: whole, on cells; Native CD3 complex on cells; the other CD3 chains are not specified for this assay; also called Human CD3+ Jurkat
T1 sequence (P07766 23-207): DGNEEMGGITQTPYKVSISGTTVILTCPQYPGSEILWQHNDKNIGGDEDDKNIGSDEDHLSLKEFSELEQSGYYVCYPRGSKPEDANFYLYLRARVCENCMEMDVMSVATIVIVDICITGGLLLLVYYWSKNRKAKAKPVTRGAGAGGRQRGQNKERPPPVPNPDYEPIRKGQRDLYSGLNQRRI
Protocol: (§1) Specificity of the anti-CD3 antibodies for human CD3+ Jurkat cells compared to CHO-S cells at pH 6.0 and 7.4 was determined using a FACS cell binding assay. Briefly, CD3+ human Jurkat cells and CHO-S cells were thawed and washed with cold PBSF buffer, pH 7.4 (PBS+0.1% BSA, pH 7.4). About 200,000 cells were aliquoted per well of a 96-well plate and pelleted by centrifugation (5 minutes at 500×g). The cells were washed with either PBSF pH 7.4 or PBSF pH 6.0 (PBS+0.1% BSA, pH 6.0), and then resuspended in 100 ul in either PBSF pH 7.4 or PBSF pH 6.0 with IgG antibody produced in yeast (100 nM). The mixture (cells+antibody) was incubated for 20 minutes on ice, then washed twice with either PBSF pH 7.4 or PBSF pH 6.0. Cells were resuspended in 50 ul of propidium iodide (1:500 dilution) and anti-human IgG-RPE (1:100 dilution) prepared in either PBSF pH 7.4 or PBSF pH 6.0, then incubated for 20 minutes on ice in the dark before cells were washed twice with either PBSF pH 7.4 or PBSF pH 6.0. Binding was analyzed on FACS Canto II.
(§2) Cell binding assays. CD3+ human Jurkat cells (ATCC) and CHO-S cells (Invitrogen/ThermoFisher) were thawed and washed with cold PBSF buffer, pH 7.4 (PBS+0.1% BSA, pH 7.4). About 200,000 cells were aliquoted per well of a 96-well plate (FACS Assay Plate VWR BD 353263) and pelleted by centrifugation (5 minutes at 500×g). The cells were washed with either PBSF pH 7.4 or PBSF pH 6.0 (PBS+0.1% BSA, pH 6.0), and then resuspended in 100 ul in either PBSF pH 7.4 or PBSF pH 6.0 with IgG antibody (100 nM) produced in yeast as described above. The mixture (cells+antibody) was incubated for 20 minutes on ice, then washed twice with either PBSF pH 7.4 or PBSF pH 6.0. Cells were resuspended in 50 ul of propidium iodide (Roche; 1:500 dilution) and anti-human IgG-RPE (Southern Biotech; 1:100 dilution) prepared in either PBSF pH 7.4 or PBSF pH 6.0, then incubated for 20 minutes on ice in the dark before cells were washed twice with either PBSF pH 7.4 or PBSF pH 6.0. Binding was analyzed on FACS Canto II.

[2] = target: T1, human CD3 on CD3+ Jurkat cells; experiment: flow cytometry on CD3+ Jurkat cells, ratio of MFI at pH 6.0 to pH 7.4
Protocol: as §1, §2

[3] = target: T1, human CD3 on CD3+ Jurkat cells; experiment: flow cytometry, 100 nM IgG on CD3+ Jurkat cells, pH 6.0
Protocol: as §1, §2

Row | Binder | MFI pH 7.4 [1] | MFI pH 6.0/MFI pH 7.4 [2] | MFI pH 6.0 [3]
1 | B1 | 41 MFI | 22.5 | 933 MFI
2 | B2 | 52 MFI | 1.7 | 86 MFI
3 | B3 | 96 MFI | 39.4 | 3780 MFI
4 | B4 | 41 MFI | 4.2 | 170 MFI
5 | B5 | 66 MFI | 0.8 | 52 MFI
6 | B6 | 583 MFI | 2.3 | 1320 MFI
7 | B7 | 52 MFI | 20.7 | 1080 MFI
8 | B8 | 37 MFI | 1.1 | 40 MFI
9 | B9 | 37 MFI | 9.3 | 346 MFI
10 | B10 | 33 MFI | 8.6 | 279 MFI
11 | B11 | 2990 MFI | 1.9 | 5810 MFI
12 | B12 | 55 MFI | 5.2 | 282 MFI
13 | B13 | 41 MFI | 0.9 | 36 MFI
14 | B14 | 43 MFI | 4.7 | 199 MFI
15 | B15 | 1320 MFI | 3.2 | 4260 MFI
16 | B16 | 1340 MFI | 2.2 | 2900 MFI
17 | B17 | 140 MFI | 31.6 | 4430 MFI
18 | B18 | 58 MFI | 2.6 | 148 MFI
19 | B19 | 34 MFI | 5.9 | 202 MFI
20 | B20 | 50 MFI | 0.8 | 42 MFI
21 | B21 | 45 MFI | 4.5 | 203 MFI
22 | B22 | 828 MFI | 0.6 | 500 MFI
23 | B23 | 4960 MFI | 1.2 | 5980 MFI
24 | B24 | 76 MFI | 1.2 | 89 MFI
25 | B25 | 51 MFI | 3.5 | 177 MFI
26 | B26 | 72 MFI | 5 | 361 MFI
27 | B27 | 53 MFI | 3.1 | 166 MFI
28 | B28 | 567 MFI | 5.4 | 3060 MFI
